Results from patent publication US20260275312, “CRISPR NUCLEASE POLYPEPTIDES AND GENE EDITING SYSTEMS COMPRISING SUCH” (ARBOR BIOTECHNOLOGIES, INC., published 2026).

T1: Nuclease H L54R/L323R/T783R (synthetic construct, L54R,L323R,T783R)
T1 chain: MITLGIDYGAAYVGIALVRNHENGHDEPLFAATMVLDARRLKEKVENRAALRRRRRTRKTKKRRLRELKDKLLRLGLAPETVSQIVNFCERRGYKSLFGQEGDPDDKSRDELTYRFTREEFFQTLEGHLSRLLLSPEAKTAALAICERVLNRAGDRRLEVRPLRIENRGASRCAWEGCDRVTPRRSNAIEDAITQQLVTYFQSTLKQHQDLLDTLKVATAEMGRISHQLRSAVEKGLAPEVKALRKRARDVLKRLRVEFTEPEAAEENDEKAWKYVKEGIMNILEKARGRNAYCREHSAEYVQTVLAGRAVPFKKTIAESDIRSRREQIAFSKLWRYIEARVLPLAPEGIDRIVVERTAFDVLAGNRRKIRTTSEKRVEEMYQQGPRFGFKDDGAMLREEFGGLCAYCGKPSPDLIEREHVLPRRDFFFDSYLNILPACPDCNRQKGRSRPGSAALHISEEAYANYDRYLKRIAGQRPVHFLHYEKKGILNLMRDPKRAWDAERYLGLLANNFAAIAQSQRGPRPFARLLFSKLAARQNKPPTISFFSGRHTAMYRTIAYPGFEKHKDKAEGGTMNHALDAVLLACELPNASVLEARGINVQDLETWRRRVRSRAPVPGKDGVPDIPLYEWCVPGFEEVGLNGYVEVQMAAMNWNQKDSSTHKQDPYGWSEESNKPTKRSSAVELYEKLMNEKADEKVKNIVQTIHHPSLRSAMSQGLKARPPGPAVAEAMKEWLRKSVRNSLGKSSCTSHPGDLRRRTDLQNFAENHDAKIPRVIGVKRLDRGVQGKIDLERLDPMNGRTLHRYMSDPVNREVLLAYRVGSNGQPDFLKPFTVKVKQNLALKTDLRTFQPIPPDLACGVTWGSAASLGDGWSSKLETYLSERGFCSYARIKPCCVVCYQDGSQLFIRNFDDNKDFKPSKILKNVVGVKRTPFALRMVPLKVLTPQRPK

T2: Nuclease W S925R (synthetic construct, S925R)
T2 chain: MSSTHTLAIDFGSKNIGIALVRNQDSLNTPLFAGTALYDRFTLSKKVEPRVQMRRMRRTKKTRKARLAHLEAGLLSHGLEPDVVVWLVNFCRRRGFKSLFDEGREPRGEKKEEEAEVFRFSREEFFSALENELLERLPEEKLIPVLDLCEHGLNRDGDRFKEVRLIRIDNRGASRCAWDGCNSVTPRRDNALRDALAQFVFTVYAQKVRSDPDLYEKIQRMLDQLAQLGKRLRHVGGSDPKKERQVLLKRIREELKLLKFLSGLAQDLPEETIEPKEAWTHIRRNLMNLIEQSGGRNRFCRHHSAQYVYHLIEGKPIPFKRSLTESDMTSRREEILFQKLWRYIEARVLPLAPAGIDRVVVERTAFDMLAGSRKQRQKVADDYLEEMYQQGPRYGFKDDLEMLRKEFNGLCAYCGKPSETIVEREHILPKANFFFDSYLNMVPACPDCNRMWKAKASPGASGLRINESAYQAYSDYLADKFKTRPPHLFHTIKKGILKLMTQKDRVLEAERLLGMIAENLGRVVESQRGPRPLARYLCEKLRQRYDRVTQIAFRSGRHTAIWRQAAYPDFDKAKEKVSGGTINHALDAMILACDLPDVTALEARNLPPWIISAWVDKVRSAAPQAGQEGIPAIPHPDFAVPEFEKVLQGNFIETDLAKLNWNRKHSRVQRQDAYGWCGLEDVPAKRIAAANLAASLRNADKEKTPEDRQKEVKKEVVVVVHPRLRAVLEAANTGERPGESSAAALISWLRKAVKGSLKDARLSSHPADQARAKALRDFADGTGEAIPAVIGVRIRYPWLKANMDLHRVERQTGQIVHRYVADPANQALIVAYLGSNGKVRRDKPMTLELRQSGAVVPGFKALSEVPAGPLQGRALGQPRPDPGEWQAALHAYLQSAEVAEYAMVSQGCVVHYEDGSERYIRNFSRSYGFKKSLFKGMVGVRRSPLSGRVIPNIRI

B1: H AAVS1-T5 RNA guide ; AAVS1-T5 target (H) (ssRNA ; dsDNA)
RNA: GGCUAUAAUCCAUGCUGACCGUUUCAAUCAACCUGAUCUCUCUGCUUGCGCUGCAGGCUUCAUAAGAUCAGUAGGUUGAAAAGAGCAUCCGUCCGACAUGCACUCCGGGAUGGGGCAGUCCCGGCUCUUGCGGUUCCCGAUGCAGUUAUGUGUCCGCGGAACACGGUGUCGGACACGUCGCAAGACAGGAUGUGAGCCCAUUAUCCACAUUAGGAUCAAUGUACGCAUGAGCAGUCCGCAAUGCCGGGGACGCU
DNA 1: GGCTATAATCCATGCTGACC
DNA 2: GGTCAGCATGGATTATAGCC
B2: W EMX1-T5 RNA guide ; EMX1-T5 target (W) (ssRNA ; dsDNA)
RNA: UAAACUACAGUGGUGCCUGGGUUUCAGCUACCCUGAGUUUCUCAACUCCGUUGAGACUUCCUCAGGUUCAAGCUGAAAAGAGCAUCUGUCCGGAAGGACCACUCCGGGUUAGGGCAGACCCGGCUCUUGGGCUUCCUUGGUCUUUGACUCUGGAGGAAACCUUCCGGCGUGUCGCAAGACAAGAUGUGAGCCUG
DNA 1: TAAACTACAGTGGTGCCTGG
DNA 2: CCAGGCACCACTGTAGTTTA

Columns and labels:
[1] = target: T1, Nuclease H L54R/L323R/T783R; test: cell_activity; HEK293T; PAM AAC; details: tags: N-term SV40 NLS, XTEN linker + C-term nucleoplasmin NLS
Protocol: HEK293T cells were transfected with plasmids expressing the Nuclease H polypeptides and the gRNAs provided herein following the methods provided in Example 1 above. Gene editing efficiencies were determined by NGS following the methods also provided in Example 1. The NGS results were analyzed also following the methods provided in Example 1 above.
Each Nuclease H variant and RNA guide (see Table 16) was cloned as described in Example 9. HEK293T cells were further transfected, followed by NGS analysis, as described in Example 10. For each target, indel ratios, referring to the percentage of NGS reads comprising indels, were calculated for the reference Nuclease H (SEQ ID NO: 64) and for each Nuclease H variant. The indel ratios shown in Table 18 were calculated as the average of two bioreplicates, each of which contained two technical replicates.

Nuclease W S925R = target: T2, Nuclease W S925R; test: cell_activity; HEK293T; PAM AAA; details: tags: N-term SV40 NLS, XTEN linker + C-term nucleoplasmin NLS
Protocol: Approximately 16 hours prior to transfection, 25,000 HEK293T cells in DMEM/10% FBS+Pen/Strep (D10 media) were plated into each well of a 96-well plate. On the day of transfection, the cells were 50-90% confluent. For each well to be transfected, a mixture of Lipofectamine 2000™ (ThermoFisher Scientific) and Opti-MEM™ (ThermoFisher Scientific) was prepared and incubated at room temperature for 5 minutes (Solution 1). After incubation, the Lipofectamine 2000™:Opti-MEM™ mixture was added to a separate mixture containing the CRISPR nuclease plasmid (NLS-tagged), RNA guide plasmid, and Opti-MEM™ (Solution 2). In the case of negative controls, the CRISPR nuclease plasmid was excluded. Solutions 1 and 2 were mixed by pipetting up and down, then incubated at room temperature for 25 minutes. Following incubation, the Solution 1 and 2 mixture was added dropwise to each well of a 96-well plate containing the cells. Approximately 72 hours post transfection, cells were trypsinized by adding TrypLE™ (Thermo Fisher Scientific) to the center of each well and incubating at 37° C. for approximately 5 minutes. D10 media was then added to each well and mixed to resuspend cells. […]
Cells were transfected, and samples were prepared for NGS as described in Example 1. Indel ratios, referring to the percentage of NGS reads comprising indels, were calculated for the reference and for each variant. […]

Binder	activity [1]	fold change in indel ratio vs reference (Nuclease W S925R)
B1	0.4 indel ratio	
B2		3.44 fold indel vs reference
